{
  "source": "patent US20250109215A1",
  "about": "(Xencor, published 2025)",
  "binders": {"B1": {"name": "13928B (bispecific antibody)", "Heavy Chain 1 (Anti-CD123 Fab-Fc (7G3_H0))": "EVQLQQSGPELVKPGASVKMSCKASGYTFTDYYMKWVKQSHGKSLEWIGDIIPSNGATFYNQKFKGKATLTVDRSSSTAYMHLNSLTSEDSAVYYCTRSHLLRASWFAYWGQGTLVTVSAASTKGPSVFPLAPSSKSTSGGTAALGCLVKDYFPEPVTVSWNSGALTSGVHTFPAVLQSSGLYSLSSVVTVPSSSLGTQTYICNVNHKPSDTKVDKKVEPKSCDKTHTCPPCPAPPVAGPSVFLFPPKPKDTLMISRTPEVTCVVVDVKHEDPEVKFNWYVDGVEVHNAKTKPREEEYNSTYRVVSVLTVLHQDWLNGKEYKCKVSNKALPAPIEKTISKAKGQPREPQVYTLPPSREEMTKNQVSLTCDVSGFYPSDIAVEWESDGQPENNYKTTPPVLDSDGSFFLYSKLTVDKSRWEQGDVFSCSVMHEALHNHYTQKSLSLSPGK", "Heavy Chain 2 (Anti-CD3 scFv-Fc (aCD3_H1.30_L1.47))": "not shown", "Light Chain (Anti-CD123 LC (7G3_L0))": "DFVMTQSPSSLTVTAGEKVTMSCKSSQSLLNSGNQKNYLTWYLQKPGQPPKLLIYWASTRESGVPDRFTGSGSGTDFTLTISSVQAEDLAVYYCQNDYSYPYTFGGGTKLEIKRTVAAPSVFIFPPSDEQLKSGTASVVCLLNNFYPREAKVQWKVDNALQSGNSQESVTEQDSKDSTYSLSSTLTLSKADYEKHKVYACEVTHQGLSSPVTKSFNRGEC"}, "B2": {"name": "XENP14701 (bispecific antibody)", "heavy": "EVQLVESGGGLVQPGGSLRLSCAASGFDFSRSWMNWVRQAPGKGLEWVSEINPDSSTINYATSVKGRFTISRDNSKNTLYLQMNSLRAEDTAVYYCARYGNWFPYWGQGTLVTVSSASTKGPSVFPLAPSSKSTSGGTAALGCLVKDYFPEPVTVSWNSGALTSGVHTFPAVLQSSGLYSLSSVVTVPSSSLGTQTYICNVNHKPSDTKVDKKVEPKSCDKTHTCPPCPAPPVAGPSVFLFPPKPKDTLMISRTPEVTCVVVDVKHEDPEVKFNWYVDGVEVHNAKTKPREEEYNSTYRVVSVLTVLHQDWLNGKEYKCKVSNKALPAPIEKTISKAKGQPREPQVYTLPPSREEMTKNQVSLTCDVSGFYPSDIAVEWESDGQPENNYKTTPPVLDSDGSFFLYSKLTVDKSRWEQGDVFSCSVMHEALHNHYTQKSLSLSPGK", "scFv-Fc": "not shown", "light": "DIVMTQSPSSLSASVGDRVTITCRASQNVDTNVAWYQQKPGQSPKALIYSASYRYSGVPDRFTGSGSGTDFTLTISSLQPEDFATYFCQQYDSYPLTFGGGTKLEIKRTVAAPSVFIFPPSDEQLKSGTASVVCLLNNFYPREAKVQWKVDNALQSGNSQESVTEQDSKDSTYSLSSTLTLSKADYEKHKVYACEVTHQGLSSPVTKSFNRGEC", "notes": "anti-CD38 x anti-CD3; copies: 1 + 1 + 1"}, "B3": {"name": "XENP14703 (bispecific antibody)", "heavy": "B2 heavy", "scFv-Fc": "not shown", "light": "B2 light with Y55K", "notes": "anti-CD38 x anti-CD3"}, "B4": {"name": "XmAb14702 (bispecific antibody)", "heavy": "B2 heavy with D28T, R31Y, D54Q", "scFv-Fc": "not shown", "light": "B2 light with N32W"}, "B5": {"name": "XENP13243 (bispecific antibody)", "heavy": "B2 heavy", "scFv-Fc": "not shown", "light": "B2 light", "notes": "as for B2"}, "B6": {"name": "13760 7G3_H0L0_Fab_His (Fab, V domains shown)", "VH": "EVQLQQSGPELVKPGASVKMSCKASGYTFTDYYMKWVKQSHGKSLEWIGDIIPSNGATFYNQKFKGKATLTVDRSSSTAYMHLNSLTSEDSAVYYCTRSHLLRASWFAYWGQGTLVTVSA", "VL": "DFVMTQSPSSLTVTAGEKVTMSCKSSQSLLNSGNQKNYLTWYLQKPGQPPKLLIYWASTRESGVPDRFTGSGSGTDFTLTISSVQAEDLAVYYCQNDYSYPYTFGGGTKLEIKR", "notes": "Fab of the murine 7G3 variable regions; also called XENP13760"}, "B7": {"name": "13967 7G3_H1.109_L1.57_Fab_His (Fab, V domains shown)", "VH": "QVQLQQSGAEVKKPGASVKVSCKASGYTFTDYYMKWVKQSHGKSLEWMGDIIPSNGATFYNQKFKGKATLTVDRSTSTAYMELSSLRSEDTAVYYCARSHLLRASWFAYWGQGTLVTVSS", "VL": "DFVMTQSPDSLAVSLGERATINCKSSQSLLNTGNQKNYLTWYQQKPGQPPKLLIYWASTRESGVPDRFTGSGSGTDFTLTISSLQAEDVAVYYCQNDYSYPYTFGGGTKLEIKR", "notes": "also called XENP13967"}, "B8": {"name": "XENP14045 (anti-CD123 x anti-CD3) bispecific (bispecific antibody)", "heavy": "QVQLQQSGAEVKKPGASVKVSCKASGYTFTDYYMKWVKQSHGKSLEWMGDIIPSNGATFYNQKFKGKATLTVDRSTSTAYMELSSLRSEDTAVYYCARSHLLRASWFAYWGQGTLVTVSSASTKGPSVFPLAPSSKSTSGGTAALGCLVKDYFPEPVTVSWNSGALTSGVHTFPAVLQSSGLYSLSSVVTVPSSSLGTQTYICNVNHKPSDTKVDKKVEPKSCDKTHTCPPCPAPPVAGPSVFLFPPKPKDTLMISRTPEVTCVVVDVKHEDPEVKFNWYVDGVEVHNAKTKPREEEYNSTYRVVSVLTVLHQDWLNGKEYKCKVSNKALPAPIEKTISKAKGQPREPQVYTLPPSREEMTKNQVSLTCDVSGFYPSDIAVEWESDGQPENNYKTTPPVLDSDGSFFLYSKLTVDKSRWEQGDVFSCSVMHEALHNHYTQKSLSLSPGK", "scFv-Fc": "not shown", "light": "not shown", "notes": "XENP13967 has the same CD123 side with a different CD3 scFv"}},
  "key": {"CD123 on KG-1a cells": {"molecular_target": "CD123 on KG-1a cells (human, UniProt P26951 19-378)", "experiment": "cell-based or functional assay"}, "CD3 [1]": {"molecular_target": "T1, CD3 (Homo sapiens (Human), UniProt P07766 23-126; P04234 22-105)", "T1 construct": "not shown: The Fc carrier of the Sino Biological CD3 delta-epsilon-Fc heterodimer; copies: 1 + 1", "T1 sequence (P07766 23-126 limits assumed, chain 1 of 2)": "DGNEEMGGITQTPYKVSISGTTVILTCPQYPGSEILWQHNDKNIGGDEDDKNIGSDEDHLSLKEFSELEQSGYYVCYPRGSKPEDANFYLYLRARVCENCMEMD", "T1 sequence (P04234 22-105 limits assumed, chain 2 of 2)": "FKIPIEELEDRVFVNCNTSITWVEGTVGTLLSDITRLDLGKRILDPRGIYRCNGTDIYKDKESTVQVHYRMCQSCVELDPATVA", "experiment": "Biacore; column head 'KD (nM)*', anti-CD3 scFv-Fc H1.31_L1.47"}, "CD3 [2]": {"molecular_target": "T1, CD3", "experiment": "Biacore"}, "CD3 [3]": {"molecular_target": "T1, CD3", "experiment": "Biacore; column head 'KD (nM)*', anti-CD3 scFv-Fc H1.30_L1.47"}, "human CD123 [4]": {"molecular_target": "T2, human CD123 (human, UniProt P26951 19-305, limits assumed)", "T2 construct": "Construct on the chip is not described; also called CD123 chip", "T2 sequence (looked up)": "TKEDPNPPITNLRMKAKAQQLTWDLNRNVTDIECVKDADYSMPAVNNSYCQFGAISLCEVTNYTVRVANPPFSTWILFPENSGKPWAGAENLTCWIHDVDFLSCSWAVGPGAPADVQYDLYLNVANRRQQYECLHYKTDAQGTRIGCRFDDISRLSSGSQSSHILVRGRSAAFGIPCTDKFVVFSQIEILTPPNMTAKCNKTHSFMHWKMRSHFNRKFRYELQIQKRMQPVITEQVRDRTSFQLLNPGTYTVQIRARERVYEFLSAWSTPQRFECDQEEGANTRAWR", "experiment": "SPR sensorgrams of the Fab on CD123 (highest trace about 153 RU); the value is printed over the panel without a name and equals the rounded KD of Figure 127"}, "human CD123 [5]": {"molecular_target": "T2, human CD123", "experiment": "off-rate screen of Fab-His on a Biacore CD123 chip (Example 3), relative to 7G3 H1L1 Fab"}, "human CD123 [6]": {"molecular_target": "T2, human CD123", "experiment": "Biacore, Fab-His on CD123 (Example 3; the sheet names no assay)"}, "human CD123 [7]": {"molecular_target": "T2, human CD123", "experiment": "SPR sensorgrams on CD123 (highest trace about 160 RU); the value is printed over the panel without a name and equals the rounded KD of Figure 127"}, "human CD3": {"molecular_target": "T3, human CD3 (human, UniProt P07766 23-126; P04234 22-105)", "T3 construct": "The legend says only human CD3", "T3 sequence (P07766 23-126, chain 1 of 2)": "as the sequence (P07766 23-126 limits assumed, chain 1 of 2) above", "T3 sequence (P04234 22-105, chain 2 of 2)": "as the sequence (P04234 22-105 limits assumed, chain 2 of 2) above", "experiment": "method not stated in the legend of FIG. 142"}, "cyno CD3": {"molecular_target": "T4, cyno CD3 (cynomolgus monkey, UniProt Q95LI5 22-117; Q95LI8 22-105)", "T4 construct": "The legend says only cyno CD3; also called cynomolgus monkey CD3", "T4 sequence (Q95LI5 22-117, form in doubt, chain 1 of 2)": "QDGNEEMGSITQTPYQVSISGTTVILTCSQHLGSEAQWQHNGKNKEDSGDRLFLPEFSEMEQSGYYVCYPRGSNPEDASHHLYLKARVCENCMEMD", "T4 sequence (Q95LI8 22-105, form in doubt, chain 2 of 2)": "as the sequence (P04234 22-105 limits assumed, chain 2 of 2) above, with I5V, N15K, I20V, S32T, D33N, I34N, T64A, S74N, V83L counted along it", "experiment": "method not stated in the legend of FIG. 143"}},
  "note": "Substitutions are numbered along the chain they refer to.",
  "data": [
    {"binder": "B1", "values": [
      {"measurement": "RTCC % of KG-1a cells: EC50 (read off the curve)", "setting": "CD123 on KG-1a cells", "result": "~0.8", "unit": "ng/mL"}
    ]},
    {"binder": "B2", "values": [
      {"measurement": "Kd", "setting": "CD3 [1]", "result": 1640, "unit": "nM"},
      {"measurement": "Fold Decrease in CD3 binding from H1.30_L1.47", "setting": "CD3 [2]", "result": 330, "unit": "fold"}
    ]},
    {"binder": "B3", "values": [
      {"measurement": "Kd", "setting": "CD3 [1]", "result": 1640, "unit": "nM"},
      {"measurement": "Fold Decrease in CD3 binding from H1.30_L1.47", "setting": "CD3 [2]", "result": 330, "unit": "fold"}
    ]},
    {"binder": "B4", "values": [
      {"measurement": "Kd", "setting": "CD3 [1]", "result": 1640, "unit": "nM"},
      {"measurement": "Fold Decrease in CD3 binding from H1.30_L1.47", "setting": "CD3 [2]", "result": 330, "unit": "fold"}
    ]},
    {"binder": "B5", "values": [
      {"measurement": "Kd", "setting": "CD3 [3]", "result": 4.91, "unit": "nM"},
      {"measurement": "Fold Decrease in CD3 binding from H1.30_L1.47", "setting": "CD3 [2]", "result": 1, "unit": "fold"}
    ]},
    {"binder": "B6", "values": [
      {"measurement": "Kd", "setting": "human CD123 [4]", "result": 0.2, "unit": "nM"},
      {"measurement": "Fold improvement in off-rate vs. H1L1", "setting": "human CD123 [5]", "result": 7.21, "unit": "fold"},
      {"measurement": "Ka", "setting": "human CD123 [6]", "result": "6.25e+09", "unit": "M⁻¹"},
      {"measurement": "Kd", "setting": "human CD123 [6]", "result": 0.16, "unit": "nM"},
      {"measurement": "koff", "setting": "human CD123 [6]", "result": 0.000108, "unit": "s⁻¹"},
      {"measurement": "kon", "setting": "human CD123 [6]", "result": 674000, "unit": "M⁻¹ s⁻¹"}
    ]},
    {"binder": "B7", "values": [
      {"measurement": "Kd", "setting": "human CD123 [7]", "result": 0.1, "unit": "nM"},
      {"measurement": "Ka", "setting": "human CD123 [6]", "result": "1.05e+10", "unit": "M⁻¹"},
      {"measurement": "Kd", "setting": "human CD123 [6]", "result": 0.0954, "unit": "nM"},
      {"measurement": "koff", "setting": "human CD123 [6]", "result": "6.25e-05", "unit": "s⁻¹"},
      {"measurement": "kon", "setting": "human CD123 [6]", "result": 655000, "unit": "M⁻¹ s⁻¹"}
    ]},
    {"binder": "B8", "values": [
      {"measurement": "Kd", "setting": "human CD3", "result": 8.1, "unit": "nM"},
      {"measurement": "Kd", "setting": "cyno CD3", "result": 5.7, "unit": "nM"}
    ]}
  ]
}
